# According to patent US20100040600A1, “Agents for Promoting the Growth of Hematopoietic Stem Cells” (CHUGAI SEIYAKU KABUSHIKI KAISHA, priority 2006, published 2010):
# B1: VB22B sc(Fv)2: agonistic minibody against the TPO receptor; amino acid sequence of SEQ ID NO: 14 (protein, listed as Mus musculus)
# chain: MEWPLIFLFLLSGTAGVHSQVQLQQSGPELVKPGASVKISCKASGYAFTNSWMNWVKQRPGKGLEWIGRIYPGDGETIYNGKFRVKATLTADKSSSTAYMDISSLTSEDSAVYFCARGYDDYSFAYWGQGTLVTVSAGGGGSGGGGSGGGGSDIVMTQAAPSIPVTPGESVSISCRSSKSLLHSNGNTYLYWFLQRPGQSPQLLIYRMSNLASGVPDRFSGSGSGTAFTLRISRVEAEDVGVYYCMQHIEYPFTFGSGTKLEIKGGGGSGGGGSGGGGSQVQLQQSGPELVKPGASVKISCKASGYAFTNSWMNWVKQRPGKGLEWIGRIYPGDGETIYNGKFRVKATLTADKSSSTAYMDISSLTSEDSAVYFCARGYDDYSFAYWGQGTLVTVSAGGGGSGGGGSGGGGSDIVMTQAAPSIPVTPGESVSISCRSSKSLLHSNGNTYLYWFLQRPGQSPQLLIYRMSNLASGVPDRFSGSGSGTAFTLRISRVEAEDVGVYYCMQHIEYPFTFGSGTKLEIK
# B2: sc(Fv)2 antibody of SEQ ID NO: 73: humanized sc(Fv)2 antibody comprising the amino acid sequence of SEQ ID NO: 73; c-mpl agonist (protein, listed as Homo sapiens)
# chain: MDWTWRFLFVVAAATGVQSQVQLVQSGPEVKKPGASVKVSCKASGYTFTNSWMNWVRQRPGKGLEWIGRIYPGDGETIYNGKFRVRVTITADESTSTAYMQLSSLRSEDTAVYYCARGYDDYSFAYWGQGTTVTVSSGGGGSGGGGSGGGGSDIVMTQSPLSLPVTPGEPASISCRSSKSLLHSNGNTYLYWFLQKPGQSPQLLIYRMSNLASGVPDRFSGSGSGTDFTLKISRVEAEDVGVYYCMQHIEYPFTFGQGTKLEIKGGGGSGGGGSGGGGSQVQLVQSGPEVKKPGASVKVSCKASGYTFTNSWMNWVRQRPGKGLEWIGRIYPGDGETIYNGKFRVRVTITADESTSTAYMQLSSLRSEDTAVYYCARGYDDYSFAYWGQGTTVTVSSGGGGSGGGGSGGGGSDIVMTQSPLSLPVTPGEPASISCRSSKSLLHSNGNTYLYWFLQKPGQSPQLLIYRMSNLASGVPDRFSGSGSGTDFTLKISRVEAEDVGVYYCMQHIEYPFTFGQGTKLEIK
# Assays:
# [1] = test system: human cord blood cells (CD34-positive cells); conditions: with or without TPO treatment; single administration; cited from earlier work
# [2] = test system: mouse bone marrow; conditions: TPO administered to TPO-knockout mice; cited from earlier work
# [3] = test system: human cord blood-derived CD34-positive cells; assay: Engraftment number of different human blood cell lineages in bone marrow of mice transplanted with human cord blood-derived hematopoietic stem cells (Example 1); type: in vivo, NOD.CB17-Prkdc<scid>/J mice
# Source text: Engraftment of transplanted hematopoietic stem cells in the bone marrow is required in hematopoietic stem cell transplantation. The present invention provides agents which comprise an agonist for the TPO receptor (c-mpl) as an active ingredient for enhancing the engraftment of transplanted CD34-positive hematopoietic cells in the bone marrow. The engraftment of transplanted CD34-positive hematopoietic cells (CD34-positive hematopoietic stem cells and CD34-positive hematopoietic precursor cells) in the bone marrow can be promoted by administering the agents of the present invention. The presence or absence, or the degree of engraftment of transplanted CD34-positive hematopoietic cells in the bone marrow (the engraftment rate of transplanted CD34-positive hematopoietic cells in the bone marrow) can be assessed, for example, by determining the absolute number of human CD34-positive hematopoietic cells in the bone marrow of NOD/SCID mice to which human hematopoietic cells are transplanted. Human cells can be identified among the mouse bone marrow cells by using a fluorescent-labeled, human CD34-specific antibody for detection. Specifically, the engraftment rate of transplanted CD34-positive hematopoietic cells in the bone marrow can be determined by the following procedures. First, NOD.CB17-Prkdc/J mice, to which human cord blood-derived CD34-positive cells have been transplanted, are euthanized three weeks after transplantation. The right and left femurs are collected, and then their epiphyseal portions are removed by scissors. Bone marrow cells are flushed out using a 26G-needle syringe and collected. After washing with IMDM containing 2% FBS, 5 ml of erythrocyte lysis solution is added, and the mixture is allowed to stand for five minutes. The mixture is centrifuged and supernatant is removed. Then, the precipitate is suspended in 2 ml of IMDM containing 2% FBS. The suspension is filtered through a 70-μm membrane to prepare a bone marrow cell suspension (2 ml/two femurs for each mouse). The cell suspension is aliquoted into 100-μl samples, and the cells are stained for 15 minutes with a fluorescent-labeled, human CD34-specific antibody and PI (final concentration: 2 μg/ml). After washing, 50 μl of Flow-Count fluorescent particles are added, and the engraftment number of human CD34-positive cells is determined using the EPICS XL cell analyzer. The determination may be performed, for example, according to Application Note 5: “Determination of the absolute number of cells using Flow-Count” (Beckman Coulter, Inc.). Likewise, the absolute number of different human blood cell lineages in the bone marrow can be determined using a variety of detection antibodies. The absolute number of human cells contained in the two femurs is represented by the following formula:
# Absolute number of human cells=determined value (cells/μl)×1/2(Flow-Count amount added (50)/sample amount added (100))×2000 (2 ml/two femurs/mouse)
# Mice used were acclimatized six-week-old male NOD.CB17-Prkdc/J. After systemic irradiation with 3.0 Gy of X-ray, an anti-asialo-GM1 antibody was intraperitoneally administered to the mice once every ten days from the day of irradiation. 5×10^4 human cord blood-derived CD34-positive cells were transplanted to each mouse at the caudal vein one day after irradiation. From the day after transplantation, the sc(Fv)2 antibody of SEQ ID NO: 73 was administered every day for ten consecutive days, and after that, administration was conducted for five days followed by two days of break. The doses were: 0.25 mg/5 ml/kg in the morning, and 2 mg/5 ml/kg in the evening. The antibody was subcutaneously administered at eight-hour intervals, twice a day for three weeks in total (n=10). 20 mmol/l citric acid buffer containing 0.02% Tween 80 was administered as a vehicle in the same way as the sc(Fv)2 antibody of SEQ ID NO: 73. The bone marrow was collected after three weeks transplantation, and FACS analysis was performed using EPIX XL. […]
# [4] = test system: human cord blood-derived CD34-positive cells; assay: Dose-dependent effect on engraftment number of different human blood cell lineages in bone marrow of transplanted mice (Example 3); type: in vivo, NOD.CB17-Prkdc<scid>/J mice; conditions: high, medium, low dose s.c. for ten days, FIG. 3
# Protocol: Mice used were acclimatized six-week-old male NOD.CB17-Prkdc/J. After systemic irradiation with 3.0 Gy of X-ray, an anti-asialo-GM1 antibody was intraperitoneally administered to the mice on the day of irradiation and eight days after irradiation. 5×10^4 human cord blood-derived CD34-positive cells were transplanted to each mouse at the caudal vein the day after irradiation. The sc(Fv)2 antibody of SEQ ID NO: 73 was administered every day for ten consecutive days from the day after the irradiation, according to the following three dosages (subcutaneous administration; n=9 for each group).
# High-dose group (0.25 mg/kg in the morning, an eight-hour interval, and 2 mg/kg in the evening, per day)
# Medium-dose group (0.05 mg/kg in the morning, an eight-hour interval, and 0.2 mg/kg in the evening, per day)
# Low-dose group (0.01 mg/kg in the morning, an eight-hour interval, and 0.02 mg/kg in the evening, per day)
# The dose was adjusted so that the minimum drug concentration in peripheral blood during the administration period is 50 ng/ml, 10 ng/ml, or 2 ng/ml in the high-, medium-, or low-dose group, respectively.
# 20 mmol/l sodium citrate/150 mM NaCl buffer (pH 6.5) containing 0.02% Tween 80 was administered as a vehicle in the same way as the sc(Fv)2 antibody of SEQ ID NO: 73. Bone marrow cells were collected after two weeks transplantation, and FACS analysis was performed. The absolute number of human cells was determined using Flow-Count (Beckman).
# [5] = test system: human CFU-Meg colonies; assay: Number of human CFU-Meg colonies in bone marrow of mice transplanted with human cord blood-derived hematopoietic stem cells (Example 2); type: in vivo, NOD.CB17-Prkdc<scid>/J mice; conditions: vs vehicle-administered group; s.c. 0.25 + 2 mg/kg per day, three weeks; bone marrow cells cultured 13 days in MegaCult-C; FIG. 2
# Protocol: Mice used were acclimatized six-week-old male NOD.CB17-Prkdc/J. After systemic irradiation with 3.0 Gy of X-ray, an anti-asialo-GM1 antibody was intraperitoneally administered to the mice once every ten days from the day of irradiation. 5×10^4 human cord blood-derived CD34-positive cells were transplanted to each mouse at the caudal vein one day after irradiation. From the day after transplantation, the sc(Fv)2 antibody of SEQ ID NO: 73 was administered every day for ten consecutive days, and then after that, administration was conducted for five days followed by two days of break. The antibody was subcutaneously administered at 0.25 mg/5 ml/kg in the morning and 2 mg/5 ml/kg in the evening, at eight-hour intervals, twice a day for three weeks in total (n=10). 20 mmol/l citric acid buffer containing 0.02% Tween 80 was administered as a vehicle in the same way as the sc(Fv)2 antibody of SEQ ID NO: 73. Bone marrow cells were collected after three weeks transplantation. Bone marrow cells contained in the mouse femurs were cultured with the sc(Fv)2 antibody of SEQ ID NO: 73 for 13 days using MegaCult-C (StemCell Technologies). The number of human CFU-Meg colonies was determined by counting CD41-positive colonies containing 50 or more cells under a light microscope.
# [6] = summary statement of the inventors' findings
# [7] = vs vehicle group, s.c. 0.25 + 2 mg/kg per day, three weeks, FIG. 1
# [8] = two weeks after transplantation
molecule,measurement,setting,value
TPO: cytokine that promotes growth and differentiation of megakaryocytic lineage cells; ligand for c-mpl,frequencies of CD34 positive cells,[1],did not differ significantly
same,mouse bone marrow transplantation efficiency,[2],increased
B1,engraftment of transplanted human cord blood-derived hematopoietic stem cells (CD34-positive hematopoietic cells) in the bone marrow,[3]; [6],enhanced the engraftment
same,growth of multilineage blood precursor cells,[3]; [6],induced significant growth
same,human megakaryocyte-specific differentiation (increase of megakaryocytic cells),[3]; [6],induced human megakaryocyte-specific differentiation
B2,number of human CD34-positive cells in right and left femurs,"[3]; vs vehicle group, s.c. 0.25 mg/kg morning + 2 mg/kg evening, three weeks, bone marrow three weeks after transplantation, FIG. 1",statistically significantly increased
same,number of CD19-positive cells in right and left femurs,[3]; [7],statistically significantly increased
same,number of CD33-positive cells in right and left femurs,[3]; [7],statistically significantly increased
same,number of CD41-positive cells in right and left femurs,[3]; [7],statistically significantly increased
same,number of CD45-positive cells in right and left femurs,[3]; [7],statistically significantly increased
same,number of CD34-positive cells in right and left femurs,[4]; bone marrow two weeks after transplantation,increase in a dose-dependent manner
same,number of CD19-positive cells in right and left femurs,[4]; [8],increase in a dose-dependent manner
same,number of CD33-positive cells in right and left femurs,[4]; [8],increase in a dose-dependent manner
same,number of CD38-positive cells in right and left femurs,[4]; [8],increase in a dose-dependent manner
same,number of CD41-positive cells in right and left femurs,[4]; [8],increase in a dose-dependent manner
same,number of CD45-positive cells in right and left femurs,[4]; [8],increase in a dose-dependent manner
same,number of CFU-Meg colonies in the bone marrow,[5],statistically significantly increased
